Source: the PETadex activity labels (doi:10.1111/febs.16924)

Key:
[1] = substrate: PET; test: Proxy for plastic degradation [Released monomer concentration (HPLC/LC-MS) (TPA+MHET+BHET)] (µmol TPA-EG / mg enzyme / day); conditions: pH 8
[2] = substrate: PET; test: Proxy for plastic degradation [Released monomer concentration (UHPLC) (TPA+MHET+BHET, as TPA-EG units)] (µmol TPA-EG/mg enzyme/day); conditions: pH 8
[3] = substrate: pNP-C12; conditions: pH 8; 30 °C
[4] = substrate: Polyester-polyurethane (Impranil DLN); test: Proxy for plastic degradation [Proton (H+) release, phenol red pH-indicator assay]; conditions: 40 °C

B1: unnamed (protein)
chain: MNFPRASRLMQAAVLGGLMAVSAAATAQTNPYARGPNPTAASLEASAGPFTVRSFTVSRPSGYGAGTVYYPTNAGGTVGAIAIVPGYTARQSSIKWWGPRLASHGFVVITIDTNSTLDQPSSRSSQQMAALRQVASLNGTSSSPIYGKVDTARMGVMGWSMGGGGSLISAANNPSLKAAAPQAPWDSSTNFSSVTVPTLIFACENDSIAPVNSSALPIYDSMSRNAKQFLEINGGSHSCANSGNSNQALIGKKGVAWMKRFMDNDTRYSTFACENPNSTRVSDFRTANCS
Proxy for plastic degradation ([1]; part of the chain shown): 4.33
Proxy for plastic degradation ([2]; 30 °C, part of the chain shown): 4.33

B2: unnamed (protein)
chain: MDGVLWRVRTAALMAALLALAAWALVWASPSVEAQSNPYQRGPNPTRSALTADGPFSVATYTVSRLSVSGFGGGVIYYPTGTSLTFGGIAMSPGYTADASSLAWLGRRLASHGFVVLVINTNSRFDYPDSRASQLSAALNYLRTSSPSAVRARLDANRLAVAGHSMGGGGTLRIAEQNPSLKAAVPLTPWHTDKTFNTSVPVLIVGAEADTVAPVSQHAIPFYQNLPSTTPKVYVELDNASHFAPNSNNAAISVYTISWMKLWVDNDTRYRQFLCNVNDPALSDFRTNNRHCQ
Proxy for plastic degradation [1]: 12.8
Proxy for plastic degradation ([2]; 50 °C): 12.8

B3: unnamed (protein)
chain: MAENPYERGPAPTTSSIEASRGSFATSTVTVSRLAVSGFGGGTIYYPTSTTAGTFGAISIAPGFTALQSSIAWLGPRLASQGFVVFTIDTLTTSDQPDSRGRQLLAALDYLTQQSSVRSRIDSSRLGVVGHSMGGGGTLEAARSRPSLQAAIPLTGWNLTKTWSTVRVPTLVVGAQADTVAPVASHSIPFYNSLPSSLDKAYLELRGASHFAPNSSNTTIAKYTLSWLKRFIDNDTRYEQFLCPIPSTSLSISDYRGNCPHNG
Km [3]: 730 µM
kcat [3]: 8.26 s⁻¹
kcat/Km [3]: 11300 M⁻¹ s⁻¹
Proxy for plastic degradation [4]: 790 µM
Proxy for plastic degradation [1]: 0.17
Proxy for plastic degradation ([2]; 40 °C): 0.17
